Laboratory results taken from FireProtDB (doi:10.1006/jmbi.2000.4053).
Several values for one entry are separate records, joined by “and”; a condition that tells them apart may be missing. Identical values can stand only once.

Details: Homo sapiens, pH 5, 25 °C
[1] = GdnHCl, CD, Sodium acetate 50 mM, structure 1TTG
[2] = GdnHCl, Fluorescence, Sodium acetate 50mM, transition: 2, structure 1FNF
[3] = GdnHCl, Fluorescence, Sodium acetate 50mM, transition: 2, structure 1TEN
[4] = Urea, CD, Sodium acetate 50 mM, structure 1TEN

Chain of Fibronectin A1550G, P02751 (P02751 whole entry A1550G): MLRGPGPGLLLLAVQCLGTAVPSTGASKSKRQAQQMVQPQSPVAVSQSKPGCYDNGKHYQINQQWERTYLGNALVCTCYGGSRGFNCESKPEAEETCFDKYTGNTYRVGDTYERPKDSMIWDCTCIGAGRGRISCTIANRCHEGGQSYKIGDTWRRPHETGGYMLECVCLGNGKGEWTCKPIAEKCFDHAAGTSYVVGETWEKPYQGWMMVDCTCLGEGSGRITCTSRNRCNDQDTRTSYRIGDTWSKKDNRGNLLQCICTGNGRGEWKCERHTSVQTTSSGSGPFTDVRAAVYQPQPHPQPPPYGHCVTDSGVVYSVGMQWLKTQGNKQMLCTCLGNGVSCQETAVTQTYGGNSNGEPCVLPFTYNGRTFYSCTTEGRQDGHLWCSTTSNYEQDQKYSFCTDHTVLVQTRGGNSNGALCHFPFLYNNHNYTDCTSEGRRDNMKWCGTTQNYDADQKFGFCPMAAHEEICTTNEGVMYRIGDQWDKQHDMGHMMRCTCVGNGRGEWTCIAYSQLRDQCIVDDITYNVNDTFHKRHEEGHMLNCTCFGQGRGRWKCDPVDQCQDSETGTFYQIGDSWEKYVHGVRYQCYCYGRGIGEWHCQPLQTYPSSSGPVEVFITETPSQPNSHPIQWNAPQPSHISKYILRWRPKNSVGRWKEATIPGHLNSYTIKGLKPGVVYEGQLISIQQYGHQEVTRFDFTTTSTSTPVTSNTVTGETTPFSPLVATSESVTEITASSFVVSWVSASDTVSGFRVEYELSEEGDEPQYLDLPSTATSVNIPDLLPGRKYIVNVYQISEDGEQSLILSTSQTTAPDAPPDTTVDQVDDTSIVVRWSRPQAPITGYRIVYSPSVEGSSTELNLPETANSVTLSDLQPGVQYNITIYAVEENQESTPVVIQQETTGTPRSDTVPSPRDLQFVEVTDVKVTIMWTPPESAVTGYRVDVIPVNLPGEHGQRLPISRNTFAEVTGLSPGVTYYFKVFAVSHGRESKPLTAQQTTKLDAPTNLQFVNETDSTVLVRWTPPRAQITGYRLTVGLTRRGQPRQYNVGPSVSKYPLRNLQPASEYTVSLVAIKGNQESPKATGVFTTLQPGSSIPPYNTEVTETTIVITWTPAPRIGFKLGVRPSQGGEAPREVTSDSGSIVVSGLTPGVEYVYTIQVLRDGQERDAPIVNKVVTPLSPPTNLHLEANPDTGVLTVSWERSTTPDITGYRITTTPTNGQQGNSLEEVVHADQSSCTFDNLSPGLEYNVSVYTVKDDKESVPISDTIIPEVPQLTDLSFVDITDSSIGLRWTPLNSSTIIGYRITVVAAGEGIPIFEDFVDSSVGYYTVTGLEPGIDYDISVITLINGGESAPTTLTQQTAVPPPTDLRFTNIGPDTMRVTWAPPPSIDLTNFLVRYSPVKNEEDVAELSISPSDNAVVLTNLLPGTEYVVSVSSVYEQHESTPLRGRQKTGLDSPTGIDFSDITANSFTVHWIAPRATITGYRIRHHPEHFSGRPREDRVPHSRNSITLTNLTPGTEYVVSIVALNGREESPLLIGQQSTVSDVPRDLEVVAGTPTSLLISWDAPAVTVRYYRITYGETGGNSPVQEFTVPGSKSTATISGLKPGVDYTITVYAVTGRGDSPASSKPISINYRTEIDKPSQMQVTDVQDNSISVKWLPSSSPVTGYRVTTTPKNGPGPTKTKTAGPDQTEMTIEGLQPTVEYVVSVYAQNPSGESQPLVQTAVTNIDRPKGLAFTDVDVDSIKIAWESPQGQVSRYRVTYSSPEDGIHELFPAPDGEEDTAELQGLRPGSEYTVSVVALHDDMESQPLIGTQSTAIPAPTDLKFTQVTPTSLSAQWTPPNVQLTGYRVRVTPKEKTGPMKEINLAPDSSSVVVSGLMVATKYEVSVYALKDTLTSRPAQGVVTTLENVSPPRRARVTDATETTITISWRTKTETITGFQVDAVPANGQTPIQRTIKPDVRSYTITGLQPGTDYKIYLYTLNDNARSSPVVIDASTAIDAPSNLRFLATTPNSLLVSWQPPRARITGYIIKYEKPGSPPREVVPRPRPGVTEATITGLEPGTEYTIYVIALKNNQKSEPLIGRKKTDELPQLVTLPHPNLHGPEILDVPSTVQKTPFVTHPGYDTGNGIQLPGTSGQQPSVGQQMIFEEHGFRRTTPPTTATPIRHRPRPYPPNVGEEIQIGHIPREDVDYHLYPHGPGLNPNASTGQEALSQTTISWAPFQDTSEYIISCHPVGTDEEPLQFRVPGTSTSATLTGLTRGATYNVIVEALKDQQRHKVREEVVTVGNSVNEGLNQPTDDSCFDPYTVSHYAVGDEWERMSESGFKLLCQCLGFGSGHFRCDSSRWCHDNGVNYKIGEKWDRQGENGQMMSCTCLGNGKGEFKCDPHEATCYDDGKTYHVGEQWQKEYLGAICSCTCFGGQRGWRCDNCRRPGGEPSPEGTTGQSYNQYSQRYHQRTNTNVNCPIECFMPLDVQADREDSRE
Chain of Fibronectin A1611G, P02751 (P02751 whole entry A1611G): as the sequence (P02751 whole entry A1550G) above, with G1550A, A1611G counted along it

With Fibronectin A1550G, P02751 the “ddG of mutation (higher = less stable)” value [1] was 0.93 kcal/mol, the denaturant m value [1] was 6.1 kcal/mol/M and the “denaturant midpoint (higher = more stable)” value (shortened to “denaturant midpoint”) [1] was 1.33 M.
In the case of Fibronectin A1594G, P02751, the “ddG of mutation (higher = less stable)” value [1] was 2.81 kcal/mol, the denaturant m value [1] was 7.1 kcal/mol/M and the “denaturant midpoint” value [1] was 1.04 M.
For Fibronectin A1611G, P02751, the “ddG of mutation (higher = less stable)” value [1] was 1.38 kcal/mol, the denaturant m value [1] was 6.2 kcal/mol/M and the “denaturant midpoint” value [1] was 1.26 M.
For Fibronectin F1585A, P02751, the “ddG of mutation (higher = less stable)” value [1] was 2.16 kcal/mol, the denaturant m value [1] was 6.8 kcal/mol/M and the “denaturant midpoint” value [1] was 1.14 M.
With Fibronectin I1571A, P02751 the “ddG of mutation (higher = less stable)” value [1] was 5.02 kcal/mol, the denaturant m value [1] was 6.9 kcal/mol/M and the “denaturant midpoint” value [1] was 0.7 M.
With Fibronectin I1571V, P02751 the “ddG of mutation (higher = less stable)” value [1] was 0.41 kcal/mol, the denaturant m value [1] was 6.9 kcal/mol/M and the “denaturant midpoint” value [1] was 1.41 M.
With Fibronectin I1596A, P02751 the “ddG of mutation (higher = less stable)” value [1] was 3.66 kcal/mol, the denaturant m value [1] was 7.2 kcal/mol/M and the “denaturant midpoint” value [1] was 0.91 M.
In the case of Fibronectin I1596V, P02751, the “ddG of mutation (higher = less stable)” value [1] was 1.12 kcal/mol, the denaturant m value [1] was 7.1 kcal/mol/M and the “denaturant midpoint” value [1] was 1.3 M.
In the case of Fibronectin I1607A, P02751, the “ddG of mutation (higher = less stable)” value [1] was 3.72 kcal/mol, the denaturant m value [1] was 5.6 kcal/mol/M and the “denaturant midpoint” value [1] was 0.9 M.
In the case of Fibronectin I1625A, P02751, the “ddG of mutation (higher = less stable)” value [1] was 0.35 kcal/mol, the denaturant m value [1] was 6.03 kcal/mol/M and the “denaturant midpoint” value [1] was 1.42 M.
For Fibronectin I1625V, P02751, the “ddG of mutation (higher = less stable)” value [1] was 0.35 kcal/mol, the denaturant m value [1] was 6.5 kcal/mol/M and the “denaturant midpoint” value [1] was 1.42 M.
For Fibronectin I1627A, P02751, the “ddG of mutation (higher = less stable)” value [1] was 0.35 kcal/mol, the denaturant m value [1] was 6 kcal/mol/M and the “denaturant midpoint” value [1] was 1.42 M. The “ddG of mutation (higher = less stable)” value [2] was 3.66 kcal/mol, the denaturant m value [2] was 7.2 kcal/mol/M and the “denaturant midpoint” value [2] was 1.04 M. The unfolding free energy [2] was 5.74 kcal/mol.
In the case of Fibronectin I1627V, P02751, the “ddG of mutation (higher = less stable)” value [1] was 0.28 kcal/mol, the denaturant m value [1] was 6.3 kcal/mol/M and the “denaturant midpoint” value [1] was 1.43 M. The “ddG of mutation (higher = less stable)” value [2] was 1.12 kcal/mol, the denaturant m value [2] was 7.1 kcal/mol/M and the “denaturant midpoint” value [2] was 0.91 M. The unfolding free energy [2] was 8.28 kcal/mol.
For Fibronectin L1545A, P02751, the “ddG of mutation (higher = less stable)” value [1] was 1.64 kcal/mol, the denaturant m value [1] was 6.2 kcal/mol/M and the “denaturant midpoint” value [1] was 1.22 M.
For Fibronectin L1555A, P02751, the “ddG of mutation (higher = less stable)” value [1] was 0.87 kcal/mol, the denaturant m value [1] was 6.3 kcal/mol/M and the “denaturant midpoint” value [1] was 1.34 M.
In the case of Fibronectin L1599A, P02751, the “ddG of mutation (higher = less stable)” value [1] was 2.94 kcal/mol, the denaturant m value [1] was 6.6 kcal/mol/M and the “denaturant midpoint” value [1] was 1.02 M.
In the case of Fibronectin P1542A, P02751, the “ddG of mutation (higher = less stable)” value [1] was -0.11 kcal/mol, the denaturant m value [1] was 6.4 kcal/mol/M and the “denaturant midpoint” value [1] was 1.49 M.
With Fibronectin P1562A, P02751 the “ddG of mutation (higher = less stable)” value [1] was 0.48 kcal/mol, the denaturant m value [1] was 6.5 kcal/mol/M and the “denaturant midpoint” value [1] was 1.4 M.
For Fibronectin P1601A, P02751, the “ddG of mutation (higher = less stable)” value [1] was 0.41 kcal/mol, the denaturant m value [1] was 6.6 kcal/mol/M and the “denaturant midpoint” value [1] was 1.41 M.
With Fibronectin S1622A, P02751 the “ddG of mutation (higher = less stable)” value [1] was -0.11 kcal/mol, the denaturant m value [1] was 6.5 kcal/mol/M and the “denaturant midpoint” value [1] was 1.49 M.
With Fibronectin V1547A, P02751 the “ddG of mutation (higher = less stable)” value [1] was 1.38 kcal/mol, the denaturant m value [1] was 6.8 kcal/mol/M and the “denaturant midpoint” value [1] was 1.26 M.
In the case of Fibronectin V1566A, P02751, the “ddG of mutation (higher = less stable)” value [1] was 1.45 kcal/mol, the denaturant m value [1] was 6.6 kcal/mol/M and the “denaturant midpoint” value [1] was 1.25 M.
With Fibronectin V1587A, P02751 the “ddG of mutation (higher = less stable)” value [1] was 2.42 kcal/mol, the denaturant m value [1] was 5.7 kcal/mol/M and the “denaturant midpoint” value [1] was 1.1 M.
For Fibronectin V1603A, P02751, the “ddG of mutation (higher = less stable)” value [1] was 0.67 kcal/mol, the denaturant m value [1] was 6.12 kcal/mol/M and the “denaturant midpoint” value [1] was 1.37 M.
For Fibronectin Y1569A, P02751, the “ddG of mutation (higher = less stable)” value [1] was 4.37 kcal/mol and 3.96 kcal/mol, the denaturant m value [1] was 6.8 kcal/mol/M and the “denaturant midpoint” value [1] was 0.8 M.
For Fibronectin Y1569F, P02751, the “ddG of mutation (higher = less stable)” value [1] was 0.41 kcal/mol, the denaturant m value [1] was 6.3 kcal/mol/M and the “denaturant midpoint” value [1] was 1.41 M.
For Fibronectin Y1569L, P02751, the “ddG of mutation (higher = less stable)” value [1] was 2.81 kcal/mol and 2.4 kcal/mol, the denaturant m value [1] was 6.6 kcal/mol/M and the “denaturant midpoint” value [1] was 1.04 M.
For Fibronectin Y1573A, P02751, the “ddG of mutation (higher = less stable)” value [1] was 2.29 kcal/mol, the denaturant m value [1] was 7.9 kcal/mol/M and the “denaturant midpoint” value [1] was 1.12 M.
With Fibronectin Y1605F, P02751 the “ddG of mutation (higher = less stable)” value [1] was 2.03 kcal/mol, the denaturant m value [1] was 6.2 kcal/mol/M and the “denaturant midpoint” value [1] was 1.16 M.
With Fibronectin Y1629A, P02751 the “ddG of mutation (higher = less stable)” value [1] was 1.19 kcal/mol, the denaturant m value [1] was 6.6 kcal/mol/M and the “denaturant midpoint” value [1] was 1.29 M.
For Fibronectin Y1629F, P02751, the “ddG of mutation (higher = less stable)” value [1] was -0.11 kcal/mol, the denaturant m value [1] was 6.5 kcal/mol/M and the “denaturant midpoint” value [1] was 1.49 M.
For Tenascin, P24821 A819G, the “ddG of mutation (higher = less stable)” value [3] was 2.8 kcal/mol, the denaturant m value [3] was 2.31 kcal/mol/M and the “denaturant midpoint” value [3] was 1.3 M. For the same substance, the “ddG of mutation (higher = less stable)” value [4] was 2.8 kcal/mol, the denaturant m value [4] was 1.3 kcal/mol/M and the “denaturant midpoint” value [4] was 3.03 M.
In the case of Tenascin, P24821 E887A, the “ddG of mutation (higher = less stable)” value [3] was -1.61 kcal/mol, the denaturant m value [3] was 5.04 kcal/mol/M and the “denaturant midpoint” value [3] was 1.3 M. For the same substance, the “ddG of mutation (higher = less stable)” value [4] was -1.61 kcal/mol, the denaturant m value [4] was 1.2 kcal/mol/M and the “denaturant midpoint” value [4] was 6.64 M.
For Tenascin, P24821 E887G, the “ddG of mutation (higher = less stable)” value [3] was 0.34 kcal/mol, the “ddG of mutation (higher = less stable)” value [4] was 0.34 kcal/mol and the denaturant m value [4] was 1.3 kcal/mol/M. The “denaturant midpoint” value [4] was 5.04 M.
With Tenascin, P24821 F889A the “ddG of mutation (higher = less stable)” value [3] was 5.43 kcal/mol, the “ddG of mutation (higher = less stable)” value [4] was 5.43 kcal/mol and the “denaturant midpoint” value [4] was 0.9 M.
In the case of Tenascin, P24821 I809A, the “ddG of mutation (higher = less stable)” value [3] was 2.86 kcal/mol, the denaturant m value [3] was 5.17 kcal/mol/M and the “denaturant midpoint” value [3] was 1.3 M. The “ddG of mutation (higher = less stable)” value [4] was 2.86 kcal/mol, the denaturant m value [4] was 1.3 kcal/mol/M and the “denaturant midpoint” value [4] was 2.98 M.
For Tenascin, P24821 I809V, the “ddG of mutation (higher = less stable)” value [3] was 0.18 kcal/mol, the denaturant m value [3] was 4.21 kcal/mol/M and the “denaturant midpoint” value [3] was 1.2 M. For the same substance, the “ddG of mutation (higher = less stable)” value [4] was 0.18 kcal/mol, the denaturant m value [4] was 1.3 kcal/mol/M and the “denaturant midpoint” value [4] was 5.17 M.
In the case of Tenascin, P24821 I821A, the “ddG of mutation (higher = less stable)” value [3] was 3.67 kcal/mol, the denaturant m value [3] was 5.13 kcal/mol/M and the “denaturant midpoint” value [3] was 1.2 M. The “ddG of mutation (higher = less stable)” value [4] was 3.67 kcal/mol, the denaturant m value [4] was 1.3 kcal/mol/M and the “denaturant midpoint” value [4] was 2.31 M.
In the case of Tenascin, P24821 I821V, the “ddG of mutation (higher = less stable)” value [3] was 0.23 kcal/mol, the denaturant m value [3] was 3.9 kcal/mol/M and the “denaturant midpoint” value [3] was 1 M. For the same substance, the “ddG of mutation (higher = less stable)” value [4] was 0.23 kcal/mol, the denaturant m value [4] was 1.2 kcal/mol/M and the “denaturant midpoint” value [4] was 5.13 M.
In the case of Tenascin, P24821 I830A, the “ddG of mutation (higher = less stable)” value [3] was 1.38 kcal/mol, the denaturant m value [3] was 5.06 kcal/mol/M and the “denaturant midpoint” value [3] was 1.2 M. The “ddG of mutation (higher = less stable)” value [4] was 1.38 kcal/mol, the denaturant m value [4] was 1.1 kcal/mol/M and the “denaturant midpoint” value [4] was 4.19 M.
In the case of Tenascin, P24821 I830V, the “ddG of mutation (higher = less stable)” value [3] was 0.32 kcal/mol, the denaturant m value [3] was 2.63 kcal/mol/M and the “denaturant midpoint” value [3] was 1.2 M. The “ddG of mutation (higher = less stable)” value [4] was 0.32 kcal/mol, the denaturant m value [4] was 1.2 kcal/mol/M and the “denaturant midpoint” value [4] was 5.06 M.
